Drawing on article PMC10053435, this text covers stoichiometry N for three substances.

What is called stoichiometry N is a count of units in the complex or per binding partner.

Experiment [1] deals with mature Epinephelus coioides mtHsp60 (EcHsp60), without the mitochondrial importing signal (Epinephelus coioides (grouper)). The experiment can be described thus: cross-linking; dimeric EcHsp60 at 0.6 mg/ml, BS^3 0.15 to 0.6 mM, 37°C 30 min, phosphate buffer pH 7.6 with 300 mM NaCl, SDS-PAGE.
For experiment [2] the target is unchanged. The experiment can be described thus: SEC; protein homogenised and purified at room temperature (RT, 25°C); Superdex S200pg 16/600, 25 mM Tris-HCl pH 7.6, 150 mM NaCl, 1 ml/min. On the technique in general: In gel filtration, larger molecules generally elute earlier.
Experiment [3] has the same target. The experiment in a line: SEC; protein homogenised and purified at 4°C (LT); Superdex S200pg 16/600, 25 mM Tris-HCl pH 7.6, 150 mM NaCl, 1 ml/min.
The target is the same in experiment [4]. The experiment can be described thus: negative-stain TEM with single particle analysis; purified oligomeric EcHSP60 at 1 mg/ml, 2% uranyl acetate, 2D classification.
Experiment [5] concerns the target naïve EcHsp60 K266A (Epinephelus coioides (grouper)). The experiment can be described thus: SEC; WT and mutated naïve EcHsp60 purified at 4°C; analytical Superdex 200 Increase 10/300 GL.
The target of experiment [6] is naïve EcHsp60 R264AK266A (Epinephelus coioides (grouper)). The experiment is described as above.
Experiment [7] shares this target. The experiment can be described thus: negative-stain TEM with single particle analysis; purified oligomeric EcHSP60 at 1 mg/ml, 2% uranyl acetate, 2D classification.

Consider “mature Epinephelus coioides mtHsp60 (EcHsp60), without the mitochondrial importing signal (natural protein)”, for which the stoichiometry N came to 2 in experiment [1], 7 in experiment [2], 2 in experiment [3] and 7 in experiment [4].
The substance naïve EcHsp60 K266A (natural protein) showed a stoichiometry N in experiment [5] of 7.
As to “naïve EcHsp60 R264AK266A (natural protein)”, the stoichiometry N in experiment [6] and in experiment [7] was 7 each time.
